Data published in the supplement of paper PMC10567573.

B1: INTS3 (parent)
chain: FHPIKETVVEEPVDITPYLDQLDE

Variants of: B1
Assay: protein stability index of a GFP-peptide fusion (GPS, HEK-293T) (PSI 1-6); higher = more stable
Conditions: c terminus: a fixed tail appended
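Also: lentivirally expressed fusions sorted by FACS into six bins by GFP to DsRed ratio, PSI derived from sequencing read proportions per bin multiplied by bin number.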

Protein stability index: each site, then its substitutions
I15: W 2.39, G 3.23, P 3.53, K 3.86, R 4.13, L 3.25, Q 3.79, T 4.26, S 2.92, V 3.98, N 2.32, M 2.86, F 2.4, Y 3.3, H 3.03
D23: N 2.8, R 2.63, K 2.39, P 3.02, G 2.59, V 2.3, L 2.21, M 2.22, S 2.68, E 3.29, I 2.06, W 1.8, H 2.66, A 2.35, T 3.08, Y 2.18, F 2.28, Q 3.02, C 2.48
T16: R 2.84, K 3.45, E 3.75, A 3.91, P 3, Y 2.77, L 3.05, I 3.41, H 2.79, N 3.18, C 3.09, V 3.14, D 3.79, Q 3.79, F 3.2, M 3.73, W 2.33, G 3.44, S 3.32
L19: M 2.86, D 3.24, T 3.31, V 4.03, N 3.66, R 3.14, K 3.24, I 3.12, Q 2.72, E 4.34, P 3.88, F 3.02, S 3.98, A 3.21, C 3.21, Y 3.2, H 3.18, G 3.32, W 2.56
L22: E 3.68, I 3.83, R 3.71, S 3.13, H 3.5, G 3.41, Q 4.11, F 3.03, V 3.41, Y 3.16, N 3.85, P 3.61, A 3.9, M 2.57, K 3.7, C 3.82, D 3.62, W 2.73, T 3.38
Q21: A 3.73, F 2.55, L 3.05, K 3.05, C 2.55, N 3.06, T 3.19, G 3.56, Y 2.5, W 2.26, I 3.26, V 4.05, S 2.82, R 2.71, P 3.15, M 3.42, D 3.51, H 3.26, E 3.62
P17: C 3.17, V 3.21, N 3.19, L 2.92, D 3.58, R 2.39, E 3.89, H 3.63, M 3.17, W 3.61, S 3.12, F 3.08, T 2.94, G 3.46, I 2.49, A 3.25, K 2.88, Q 3.52, Y 3.75
D20: M 2.02, C 2.49, E 3.48, S 3.3, F 2.41, P 2, N 2.94, T 2.94, I 2.35, V 2.11, Q 2.41, L 2.28, W 2.14, Y 2.08, R 2.96, A 3.11, H 3, K 2.78, G 2.99
Y18: C 3.47, R 3.58, K 3.77, F 3.79, H 3.5, A 3.58, P 3.23, T 3.71, I 2.7, G 3.69, N 3.72, Q 3.95, W 3.11, D 3.43, S 3.77, E 3.36, V 3.87, L 3.88, M 3.58
